# Source: the DeepSol protein solubility set
# Assay: soluble on expression in E. coli; label from the status in PepcDB or PDB records
row,Sequence,soluble on expression in E. coli
1,MITRIPRSSFSANINNTAQTNEHQTLSELFYKELEDKFSGKELATPLLKSFSENCRQNGRHIFSNKDFVIKFSTSVLQADKKEITIINKNENTTLTQTIAPIFEKYLMEILPQRSDTLDKQELNLKSDRKEKEFPRIKLNGQCYFPGRPQNRIVCRHIAAQYINDIYQNVDYKPHQDDYSSAEKFLTHFNKKCKNQTLALVSSRPEGRCVAACGDFGLVMKAYFDKMESNGISVMAAILLVDNHALTVRLRIKNTTEGCTHYVVSVYDPNVTNDKIRIMSESKENIKHYSLMDFMNVDYSLLKWSNDHVINQSVAIIPALPKEQLLMLKGSVDEITPPLSPATMNLLMAIGQNHQLTQLMIQLQKMPELHRTEMLTAYNSINLPGLYLAINYGNADIVETIFNSLSETGYEGLLSKKNLMHILEAKDKNGFSGLFLAISRKDKNVVTSILNALPKLAATHHLDNEQVYKFLSAKNRTSSHVLYHVMANGDADMLKIVLNALPLLIRTCHLTKEQVLDLLKAKDFYGCPGLYLAMQNGHSDIVKVILEALPSLAQEINISASDIVDLLTAKSLARDTGLFMAMQRGHMNVINTIFNALPTLFNTFKFDKKNMKPLLLANNSNEYPGLFSAIQHKQQNVVETVYLALSDHARLFGFTAEDIMDFWQHKAPQKYSAFELAFEFGHRVIAELILNTLNKMAESFGFTDNPRYIAEKNYMEALLKKASPHTVRAAALEHHHHHH,not soluble
2,MAMSFIKPIYQDINSILIGQKVKRPKSGTLSGHAAGEPFEKLVYKFLKENLSDLTFKQYEYLNDLFMKNPAIIGHEARYKLFNSPTLLFLLSRGKAATENWSIENLFEEKQNDTADILLVKDQFYELLDVKTRNISKSAQAPAIISAYKLAQTCAKMIDNKEFDLFDINYLEVDWELNGEDLVCVSTSFAELFKSEPSELYINWAAAMQIQFHVRDLDQGFNGTREEWAKSYLKHFVTQAEQRAISMIDKFVKPFKKYILRSRELVDPNSVQARLQDVDGTIDTRSKLAAAQLYTRASQPELAPEDPEDLEHHHHHH,soluble
3,MLKRLGIVGFGASAIGFINGLIESGKVKDYRITVLERGKDYSHNTISGVRMDGKIFISHGMGGEIYIPLEIQAKTVEFYLKFSGYTPTVDKRVGIVNYLKSFERDGRKIEFGESFSDEEIYKRFYHHGFEPVKSYFFHLGTDILKETNKNIYEYFSSFENIEFLFGTTVEDVEFGPPHRVHTNRGDFEFDELVIAVGRSGHRLMERLKEKYPQLVRPNQFVDIGVRYELPNHVMDPFSDMYEVKVRYRTKTGYICRIFCQNPAGKVTLEKYEDFTTVNGYSDSLHKTENTNFAILVTTRFTEPFKDPTGYGVNLAKLANILAGDKEKVILQTYGDFKEFRRTKRLGRVHPTLDSESYILGDANLVFPSKIRESLVDFVENLEKVIPGASYFDNLLYAVEVKFYTNKFLNDIVEGLHVVGDCSGWTRSIQYATSMGYMRAVGMKIQSLLEHHHHHH,not soluble
4,MSDRYRFTILGCGSSPGVPRPNGDWGACNPNNPKNKRYRSSLLVERIHKSGKKTTIVIDTGPDFRSQMIDACVNHLDAALYTHSHADHIHGIDDLRSYALAQKSLIDIYADSFTLRHLKNAFGYCFQTPKGSSYLPILKAHLINEDSQFIIQGQGGAIHVNTHLQLHGSIHSLGFRIGNVAYCTDVSQFPKKTLPKLMNLNVLIIEALQFKSHPSHLSVDQALQWIKYLQPKQAILTHMDRSLDYNEVINYLPPHVKPAYQGLIFEADA,not soluble
5,MEEELPLFSGDSGKPVQATLSSLKMLDVGKWPIFSLCSEEELQLIRQACVFGSAGNEVLYTTVNDEIFVLGTNCCGCLGLGDVQSTIEPRRLDSLNGKKIACLSYGSGPHIVLATTEGEVFTWGHNAYSQLGNGTTNHGLVPCHISTNLSNKQVIEVACGSYHSLVLTSDGEVFAWGYNNSGQVGSGSTVNQPIPRRVTGCLQNKVVVTIACGQMCCMAVVDTGEVYVWGYNGNGQLGLGNSGNQPTPCRVAALQGIRVQRVACGYAHTLVLTDEGQVYAWGANSYGQLGTGNKSNQSYPTPVTVEKDRIIEIAACHSTHTSAAKTQGGHVYMWGQCRGQSVILPHLTHFSCTDDVFACFATPAVTWRLLSVEPDDHLTVAESLKREFDNPDTADLKFLVDGKYIYAHKVLLKIRCEHFRSSLEDNEDDIVEMSEFSYPVYRAFLEYLYTDSISLSPEEAVGLLDLATFYRENRLKKLCQQTIKQGICEENAIALLSAAVKYDAQDLEEFCFRFCINHLTVVTQTSGFAEMDHDLLKNFISKASRVGAFKN,not soluble
6,MAEVKKKIKPGAIEAHAEELAIVVHYEVQEVSTQSDGSQKVISKEPGEKKISVKSLSEKTNVPLLATEIIEKCKLIHPSKAGQVEELLYQLQSRGGGGGADAKAKPAAKPAAASPAKSAAAAPPPPSNVAQSPQKPGQPPSTPSKKPPAAAGAPAPMLNGKPAPKAQSRLDAEAEERADLQARRQAQAMQIFKMQQKQYEQAYMNKLDEYIEGLYEEEMPKKVRATGMIAQLFRNTENFEVLLSHETLMQTLSRVLREDGKRSIDLCTNIISVFFSVSNFTQFHGLIMQNQVGALTMDLIDLEIKRTEHRASEENISPAMVAQKALEASQGQVTLSEREKKLLALIQKQDRLLYIAFYMLLNLSEDIEVERKMKKKNIVVYLVKMLERSNVELLILATTFLKKLSIYKENKETMSSCKIVEKLMKFVPVLNDVLLMSVLRLLHNLSFDHSLRDDMVKHGLIPKAVELMMVPRFQPVVLGLLYHISMEDKYKSLFTFTDCLNKMYDMLMRVQADLRNTPELIALAVNLTQNPRNAETMCEGDRFDKMMRRAFQTCDELMFKVLRNLSQQEGINIKRRFGPYVEQLVTLLRAPDITAELFVEVLGCLANLYIPEFDFLGLVRKHDLLTFLATYAQPGAVDDDILLEVVMFVGVLCNEGTAPLIVSSGLVTTLFQLMGDKKEDDEFVLQIAFTFHKFLLHDETRASLLTNTQQVVFYLVDLLQDKNKEVRRVADQCLDIIMDTDEEWAVQIRNLKFESFNQEWLDVVSQPAGGMAAHAGRQRNGYDDETEVDYSGGDGYYNIGDQRLVADFDDLGTNGGTWGPGDEGLQGGYEGNYDGYDEEELRQGYAM,not soluble
7,MSDDPIAASQAVVLSQAQAQNSQYALARTFATQKVSLEESVLSQVTTAIQTAQEKIVYAGNGTLSDDDRASLATDLQGIRDQLMNLANSTDGNGRYIFAGYKTEAAPFDQATGGYHGGEKSVTQQVDSARTMVIGHTGAQIFNSITSNAVPEPDGSDSEKNLFVMLDTAIAALKTPVEGNNVEKEKAAAAIDKTNRGLKNSLNNVLTVRAELGTQLSELSTLDSLGSDRALGQKLQMSNLVDVDWNSV,soluble
8,MIGSGSQRKIGIVIKALLDQAEELDIINKNKIRCTDIPRQGKAERRYLTIRGIDRLLAAAIPMNEVALMRNVLLFTGLRPREAKGLKVKDLDPMRGRLSIRRDVDDLGNPDETKTRNHRGVPIGGDLLFDLDDQAEGKQPHDWLLTDETGHV,not soluble
9,MIITTTNGIEGKRVVEYKGIVCGEVISGVDFIKDFAAGLTNFFGGRSKSYEGELIEAREGAIREMKERAIQMGANAIIGVDIDYEVLGQGGNMLMVTASGTAVVIE,soluble
10,MGSDKIHHHHHHMRKINMMTTFECRVHTLEFDENYQPEMQSTRLTTNFANLARGENRKENLQNVIAMIDKRFNDLANWDNPTNDRYSVKLEIVSIDIDMEGKGKFFPALEWLKTYVIDHKTGKRIDGIVGNNFSSFVRDYDFSVLLLEHNRNKEEFTVPKGYGELHGKLFKYLLTSSAYKEKYSKPPVICLSVATTRTYRRTTNVHPILGVEYHQDNYSLTDEYFAKMGLSVRYFMPPKSVAPYAFYFDSNSDLLNDYTNLELISTIATMEAFQKIYRPEIYNANSVAGQVYKGSLTYQDYSVTKVEYDRVERTQLAIKQGKYTEAHFIKPYKAILDAWMAEK,not soluble
11,MAHHHHHHMVDYGEGGKNGSLDTVRQTLVCATRILMLAVSCKKVQLIYTLLPFMALIFKELLVSDDEERLRALFSDAKGQCALAGLRRSTANLSLLLDTEQDFTTLSSPWSFSYDTSEVGMKEIRSLTTFLVSGDSGLSEALEYVTTDCLRSGRLLTLYEIVRGFSLSPYGMMELKLDEVRDPHCGVSSHGEGSSVRGHFPHLPTHGELFLNLFTGIHEEFSLTRSPRCVGNELRRHRSSVVGAEVATTDFTLWTLAQSILYSTPGLPETLRHLRDHFAMWDECVLAINIILMCFTDVVHQLRRHSELVQALQHLLVDERNCGYKSFIRYCLENVS,not soluble
12,ESCDLEVYDRVNQSDQLCVISGQGNKRVSFYVTEGVVRNLSLGDKMTVEKEGNAYEGVINDISTMVDDSNGLFKIKADLAQADSVATGSVVKVKVISGRSDNVMTVPVDAIYYDGGVGNVYVYEDGAVHKKEVEVGLYDSELAEIRSGLAADELVISTWSSQLYEGSTVNLKSEGGESAPAGKEPGTGRTETSAAAE,not soluble
13,MQEISFRNDILPLKDKLFRLALRITLDRAEAEDVVQDTMIRVWNKRDEWSQFESVEAYCLIVAKNLAIDRSQKKEAQNVEITPEMEEEPDANSPYDQLVHDEKMNIINRLVNELPEKQRLIMQLRDIEGESYKKIATLLNLTEEQVKVNLFRARQKVKQRYLEIDEYGL,not soluble
14,MDADKDNIKQACDERSAEMDDMRGEQSMGLVHEIMSENKELDEEIKKLEAELQSDAREFQIKENVPEKKLKLTSVESPEDGCHFSNSSCSFQVSSQILYELQKGQALITFEKEEVAQNVISMGNHVVQMEGTPVKVSAHPVPLNTGVRFQVHVDISKMKINVTGIPDELSEEQTRDKLELSFCKSRNGGGEVESVDYDRKSRSAVITFVETGVVDKILKKKTYPLYMNQKCHSVAVSPCIERRLEKYQVFSAVSKKTVLLTGLEGIRVDEETGEDLLNIHFQRKNNGGGEVEVVKCSLDQSFAAYFKEEARETI,not soluble
15,MAFNTPTLSTLIKQGEQQFQYRFPTLKRHNVIGVINRICAALSAGEHMHLDWLARQIIPTTAEEDYLIEYCLYKGIVRKQASTATGLVTVTAANDTTIPAGTVFEDTNTGLTFITTQETVVKAGTADIAVKCETTGVEGNLKAGTSLSLTSAILGLLPTATVKVMSGGADIESLSRLLARLIYRVQYPPAGGASHDYIRWATEVPGVTRAWCFERYYGGGTVGVAFACDEREDILPTPEDIARVRAYIEGHKNEVTGQFEGMPANVELYVFAPQFQAVNFKIRLAPNTPTLRQAVRKSLAAYLANAGVGALLYLSQIRATVSNTAGEVDNSVIFPTADVQLLSDNIAILGDIEWL,not soluble
16,MMYRIRNWLVATLLLLCAQVGAATLSDIQVSNGNQQARITLSFIGDPDYAFSHQSKRTVALDIKQTGVIQGLPLLFSGNNLVKAIRSGTPKDAQTLRLVVDLTENGKTEAVKRQNGSNYTVVFTINADAPPPPPPPPVVVKRVETPTVVAPRVSEPARNPFKTESNRTTGVISSNTVTRPAARATANNGDKIIIAIDAGHGGQDPGAIGPGGTREKNVTIAIARKLRTLLNDDPMFKGVLTRDGDYFISVMGRSDVARKQNANFLVSIHADAAPNRSATGASVWVLSNRRANSEMASWLEQHEKQSELLGGAGDVLANSQSDPYLSQAVLDLQFGHSQRVGYDVATSMISQLQRIGEIHKRRPEHASLGVLRSPDIPSVLVETGFISNNSEERLLASDDYQQQLAEAIYKGLRNYFLAHPMQSAPQGATAQTASTVTTPDRTLPN,not soluble
17,MLIGVISDTHIPDRASEIPEAVFDAFRDVELILHAGDLTSPDILTELETLAPVECVQGNMDRHYGIETPRSRLFEIESFRVGLIHGEVYPRGDTQQLRYLGLELGADVLISGHTHQPFIRELEDMVLLNPGSPTVPRLTDPSVMVLRIDGEKLDAEIIRTGAPVCRSLNFRR,not soluble
